Data on 16 variants can be found in the supplement of paper PMC7125110.

B1: glmS ribozyme (parent)
chain: AUAAAAGCGCCAGAACUACAGAAAUGUAGUUGACGAGGAGGAGGUUUAUCGAAUUUUCGGCGGAUGCCUCCAAA

Holding throughout (details): with glucosamine-6-phosphate
Data set [1] covers variants of B1. Put plainly: kcat; higher = faster cleavage; RNA array. In a few lines:
(§1)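 Glucosamine-6-phosphate (40 μM to 10 mM) in HEPES/KCl/Mg(OAc)2 buffer was flowed over sequenced MiSeq chips, and tiles were imaged over ~14 h. Barcoded ribozyme variants there had been transcribed in situ by E. coli RNA polymerase and were tracked through a hybridised Cy3 probe at 37 °C. One- or two-exponential decay fits to per-tile medians, normalised to baseline and to non-cleaving reference variants, gave kobs. kcat and KM came from weighted Michaelis–Menten fits across concentrations.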

The variants in data set [2] derive from B1. Put plainly: KM; higher = weaker cofactor use; RNA array. The method in brief: as §1
Variants of B1 are the subject of data set [3]. Put plainly: self-cleavage kobs at 40 uM GlcN6P; higher = faster cleavage; RNA array. The method in brief: as §1
The variants in data set [4] derive from B1. In words: self-cleavage kobs at 2500 uM GlcN6P; higher = faster cleavage; RNA array. In a few lines: as §1
Data set [5] covers variants of B1. Put plainly: self-cleavage kobs at 10000 uM GlcN6P; higher = faster cleavage; RNA array. In a few lines: as §1
Data set [6] covers variants of B1. In words: self-cleavage kobs at 160 uM GlcN6P; higher = faster cleavage; RNA array. In a few lines: as §1
The variants in data set [7] derive from B1. Put plainly: self-cleavage kobs at 640 uM GlcN6P; higher = faster cleavage; RNA array. The method in brief: as §1

As a reminder, the kcat is the maximal rate divided by the concentration of active sites. Broadly, the KM is the substrate concentration at which the rate is half of its maximum.

± gives the standard error. For some assays here: Variants at the floor of the assay were thinned out. Bounds are passed on as bounds.

With G13A U57C, in the data set with glucosamine-6-phosphate [1], the kcat is 7.9e-05 ± 5.5e-06 s⁻¹. Besides, the Michaelis constant (KM) in the data set with glucosamine-6-phosphate [2] worked out at 4540 ± 780 µM. The “self-cleavage kobs at 40 uM GlcN6P” value with glucosamine-6-phosphate [3] is under 1e-05 s⁻¹. In addition, in the data set with glucosamine-6-phosphate [4], the “self-cleavage kobs at 2500 uM GlcN6P” value came out at 2.88e-05 ± 9.2e-06 s⁻¹. Also, the “self-cleavage kobs at 10000 uM GlcN6P” value with glucosamine-6-phosphate [5] was 5.42e-05 ± 8.5e-06 s⁻¹.
In the case of A64U, the kcat with glucosamine-6-phosphate [1] amounted to 0.00017 ± 6.8e-06 s⁻¹. Further, the Michaelis constant (KM) with glucosamine-6-phosphate [2] amounted to 1860 ± 190 µM. In addition, the “self-cleavage kobs at 160 uM GlcN6P” value in the data set with glucosamine-6-phosphate [6] was 1.18e-05 ± 2.4e-06 s⁻¹. In addition, the “self-cleavage kobs at 640 uM GlcN6P” value with glucosamine-6-phosphate [7] turned out to be 4.12e-05 ± 1.3e-06 s⁻¹. Further, the “self-cleavage kobs at 2500 uM GlcN6P” value with glucosamine-6-phosphate [4] was 0.000102 ± 1.9e-06 s⁻¹. In addition, the “self-cleavage kobs at 10000 uM GlcN6P” value with glucosamine-6-phosphate [5] came out at 0.000141 ± 2.2e-06 s⁻¹.
With A64C, the kcat with glucosamine-6-phosphate [1] came to 0.000188 ± 1.2e-05 s⁻¹. In addition, the KM with glucosamine-6-phosphate [2] worked out at 1610 ± 260 µM. The “self-cleavage kobs at 160 uM GlcN6P” value with glucosamine-6-phosphate [6] was 1.42e-05 ± 3e-06 s⁻¹. In the data set with glucosamine-6-phosphate [7], the “self-cleavage kobs at 640 uM GlcN6P” value came out at 5.05e-05 ± 1.6e-06 s⁻¹. The “self-cleavage kobs at 2500 uM GlcN6P” value in the data set with glucosamine-6-phosphate [4] was 0.000127 ± 3e-06 s⁻¹. Moreover, the “self-cleavage kobs at 10000 uM GlcN6P” value with glucosamine-6-phosphate [5] stood at 0.000157 ± 2.8e-06 s⁻¹.
For the variant C34G C70G, in the data set with glucosamine-6-phosphate [1], the kcat came to 1.99e-05 ± 6.6e-07 s⁻¹. In addition, in the data set with glucosamine-6-phosphate [2], the Michaelis-Menten constant (KM) was determined as 234 ± 89 µM.
For G40U A53C, the kcat with glucosamine-6-phosphate [1] is 0.00186 ± 0.00029 s⁻¹. For the same variant, the KM in the data set with glucosamine-6-phosphate [2] is 2780 ± 760 µM. Moreover, in the data set with glucosamine-6-phosphate [3], the “self-cleavage kobs at 40 uM GlcN6P” value amounted to 4.37e-05 ± 1.2e-05 s⁻¹. In addition, the “self-cleavage kobs at 160 uM GlcN6P” value in the data set with glucosamine-6-phosphate [6] amounted to 0.00012 ± 3.1e-05 s⁻¹. Further, the “self-cleavage kobs at 640 uM GlcN6P” value with glucosamine-6-phosphate [7] was 0.000309 ± 4.6e-05 s⁻¹. For the same variant, the “self-cleavage kobs at 2500 uM GlcN6P” value in the data set with glucosamine-6-phosphate [4] stood at 0.00086 ± 0.0001 s⁻¹. Moreover, the “self-cleavage kobs at 10000 uM GlcN6P” value with glucosamine-6-phosphate [5] came to 0.00149 ± 0.00016 s⁻¹.
G29U A36U: the kcat in the data set with glucosamine-6-phosphate [1] is under 1e-05 s⁻¹. Further, in the data set with glucosamine-6-phosphate [4], the “self-cleavage kobs at 2500 uM GlcN6P” value is under 1e-05 s⁻¹.
For the variant C50G U69G, in the data set with glucosamine-6-phosphate [1], the kcat was 0.000141 ± 7.4e-06 s⁻¹. Also, the “self-cleavage kobs at 40 uM GlcN6P” value in the data set with glucosamine-6-phosphate [3] was 0.000135 ± 1.6e-05 s⁻¹. Besides, the “self-cleavage kobs at 160 uM GlcN6P” value with glucosamine-6-phosphate [6] was found to be 0.000165 ± 3e-05 s⁻¹. The “self-cleavage kobs at 640 uM GlcN6P” value with glucosamine-6-phosphate [7] was 0.000151 ± 2.4e-05 s⁻¹. For the same variant, the “self-cleavage kobs at 2500 uM GlcN6P” value in the data set with glucosamine-6-phosphate [4] came out at 0.000126 ± 2e-05 s⁻¹. Also, the “self-cleavage kobs at 10000 uM GlcN6P” value with glucosamine-6-phosphate [5] was found to be 0.000141 ± 1.5e-05 s⁻¹.
As for C16U A48U, the kcat with glucosamine-6-phosphate [1] was 0.000375 ± 9.7e-06 s⁻¹. The KM with glucosamine-6-phosphate [2] was found to be 2630 ± 150 µM. Besides, in the data set with glucosamine-6-phosphate [7], the “self-cleavage kobs at 640 uM GlcN6P” value was 7.24e-05 ± 1.5e-05 s⁻¹. For the same variant, the “self-cleavage kobs at 2500 uM GlcN6P” value in the data set with glucosamine-6-phosphate [4] was 0.000181 ± 4.1e-05 s⁻¹. Besides, the “self-cleavage kobs at 10000 uM GlcN6P” value with glucosamine-6-phosphate [5] came out at 0.000297 ± 3.3e-05 s⁻¹.
In the case of C16U C61G C67A, the catalytic constant (kcat) with glucosamine-6-phosphate [1] is 2.72e-05 ± 6.4e-06 s⁻¹.
On to U46C U56A, for which, in the data set with glucosamine-6-phosphate [1], the kcat was 0.00121 ± 0.00013 s⁻¹. Also, the KM with glucosamine-6-phosphate [2] amounted to 1470 ± 230 µM. Also, the “self-cleavage kobs at 40 uM GlcN6P” value in the data set with glucosamine-6-phosphate [3] stood at 2.85e-05 ± 1e-05 s⁻¹. Moreover, the “self-cleavage kobs at 160 uM GlcN6P” value with glucosamine-6-phosphate [6] was 0.000117 ± 1.4e-05 s⁻¹. Besides, the “self-cleavage kobs at 640 uM GlcN6P” value with glucosamine-6-phosphate [7] worked out at 0.000406 ± 0.00011 s⁻¹. In addition, in the data set with glucosamine-6-phosphate [4], the “self-cleavage kobs at 2500 uM GlcN6P” value was found to be 0.000915 ± 0.00015 s⁻¹. In addition, in the data set with glucosamine-6-phosphate [5], the “self-cleavage kobs at 10000 uM GlcN6P” value is 0.00098 ± 0.00014 s⁻¹.
Take A14U U46G: the kcat with glucosamine-6-phosphate [1] stood at 0.0012 ± 0.00012 s⁻¹. The KM with glucosamine-6-phosphate [2] is 2150 ± 380 µM. Besides, the “self-cleavage kobs at 40 uM GlcN6P” value in the data set with glucosamine-6-phosphate [3] came out at 1.98e-05 ± 6.9e-06 s⁻¹. Besides, the “self-cleavage kobs at 160 uM GlcN6P” value in the data set with glucosamine-6-phosphate [6] came out at 9.07e-05 ± 2.1e-05 s⁻¹. Moreover, the “self-cleavage kobs at 640 uM GlcN6P” value with glucosamine-6-phosphate [7] is 0.000293 ± 4.6e-05 s⁻¹. Also, in the data set with glucosamine-6-phosphate [4], the “self-cleavage kobs at 2500 uM GlcN6P” value came to 0.000548 ± 0.0001 s⁻¹. In addition, in the data set with glucosamine-6-phosphate [5], the “self-cleavage kobs at 10000 uM GlcN6P” value turned out to be 0.00104 ± 0.00012 s⁻¹.
Regarding G37A C68U, in the data set with glucosamine-6-phosphate [1], the kcat stood at 6.89e-05 ± 7.5e-06 s⁻¹. Further, the KM with glucosamine-6-phosphate [2] came out at 2690 ± 820 µM. The “self-cleavage kobs at 640 uM GlcN6P” value with glucosamine-6-phosphate [7] stood at 1.94e-05 ± 7.7e-06 s⁻¹. For the same variant, the “self-cleavage kobs at 2500 uM GlcN6P” value with glucosamine-6-phosphate [4] came out at 3.08e-05 ± 5.5e-06 s⁻¹. Also, the “self-cleavage kobs at 10000 uM GlcN6P” value with glucosamine-6-phosphate [5] is 5.51e-05 ± 6e-06 s⁻¹.
Regarding U46G G59U, the kcat in the data set with glucosamine-6-phosphate [1] was under 1e-05 s⁻¹. In the data set with glucosamine-6-phosphate [3], the “self-cleavage kobs at 40 uM GlcN6P” value was under 1e-05 s⁻¹. Moreover, the “self-cleavage kobs at 640 uM GlcN6P” value with glucosamine-6-phosphate [7] was under 1e-05 s⁻¹.
For the variant C11A A14G U65G, in the data set with glucosamine-6-phosphate [1], the kcat stood at 0.000152 ± 6.2e-06 s⁻¹. The KM with glucosamine-6-phosphate [2] was determined as 1370 ± 200 µM. Also, the “self-cleavage kobs at 640 uM GlcN6P” value with glucosamine-6-phosphate [7] worked out at 5.21e-05 ± 1.7e-05 s⁻¹. Besides, the “self-cleavage kobs at 2500 uM GlcN6P” value with glucosamine-6-phosphate [4] came out at 9.32e-05 ± 2e-05 s⁻¹. For the same variant, in the data set with glucosamine-6-phosphate [5], the “self-cleavage kobs at 10000 uM GlcN6P” value stood at 0.000135 ± 1.7e-05 s⁻¹.
With C50A G66C C67U, in the data set with glucosamine-6-phosphate [1], the kcat turned out to be 1.02e-05 ± 2.9e-06 s⁻¹.
For G40C C70U C71G, the kcat with glucosamine-6-phosphate [1] worked out at 0.00208 ± 0.00091 s⁻¹. The “self-cleavage kobs at 40 uM GlcN6P” value with glucosamine-6-phosphate [3] was 0.000192 ± 2.7e-05 s⁻¹. In addition, in the data set with glucosamine-6-phosphate [6], the “self-cleavage kobs at 160 uM GlcN6P” value was found to be 0.000296 ± 8.3e-05 s⁻¹. The “self-cleavage kobs at 640 uM GlcN6P” value in the data set with glucosamine-6-phosphate [7] was found to be 0.000624 ± 0.00016 s⁻¹. Also, the “self-cleavage kobs at 2500 uM GlcN6P” value with glucosamine-6-phosphate [4] came to 0.00208 ± 0.00051 s⁻¹. In addition, the “self-cleavage kobs at 10000 uM GlcN6P” value with glucosamine-6-phosphate [5] is 0.00243 ± 0.00039 s⁻¹.
